According to patent US20190071490A1 (BETH ISRAEL DEACONESS MEDICAL CENTER, published 2019):
Ends that are not written are not given here.

B1: rat α-CGRP (1-37) (peptide)
peptide: SCNTATCVTHRLAGLLSRSGGVVKDNFVPTNVGSEAF-NH2
modifications: ends and bridges not checked; also: N-terminal biotin when captured on the SA chip
notes: also called rat α (1-37); α-rat
B2: human α-CGRP 1-36-COOH (peptide)
peptide: ACDTATCVTHRLAGLLSRSGGVVKNNFVPTNVGSKA-OH
modifications: ends and bridges not checked
notes: also called 1-36 (not amidated at the C-terminus)

Target: antibody G1 Fab fragment
Assay: Biacore competition: 50 nM G1 Fab with 10 µM peptide over human α-CGRP on chip
Excerpt: (§1) Y axis represents percentage of binding blocked by the presence of the competing peptide compared with the binding in the absence of the competing peptide.
(§2) All these peptides are amidated at the C-terminus.

antibody G1 Fab fragment, sequence (VH, as listed by the source, chain 1 of 2): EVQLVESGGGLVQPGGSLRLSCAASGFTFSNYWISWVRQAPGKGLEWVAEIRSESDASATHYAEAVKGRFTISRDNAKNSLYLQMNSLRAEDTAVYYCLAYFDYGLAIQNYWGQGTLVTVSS
antibody G1 Fab fragment, sequence (VL, as listed by the source, chain 2 of 2): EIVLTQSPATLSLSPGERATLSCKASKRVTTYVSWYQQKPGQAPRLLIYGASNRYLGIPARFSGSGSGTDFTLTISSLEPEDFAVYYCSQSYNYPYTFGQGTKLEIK

Row | Binder | percentage of binding blocked [%]
1 | B1 | 100
2 | B2 | ~40
3 | SGGVVKNNFVPTNVGSAAF-NH2 (also: N-terminal biotin when on the chip, the entry already carries K35A) [human α-CGRP K35A (19-37)] | 100
4 | SGGVVKNNFVPTNVGSEAF-NH2 (also: N-terminal biotin when on the chip, the entry already carries K35E) [human α-CGRP K35E (19-37)] | 100
5 | SGGVVKNNFVPTNVGSMAF-NH2 (also: N-terminal biotin when on the chip, the entry already carries K35M) [human α-CGRP K35M (19-37)] | 100
6 | SGGVVKNNFVATNVGSKAF-NH2 (the entry already carries P29A) [human α-CGRP P29A (19-37)] | 100

Target: antibody G1 Fab fragment
Assay: Biacore competition: G1 Fab (50 nM) pre-incubated 1 h with 10 µM competing peptide, then flowed over N-biotinylated human α-CGRP on SA chip; percent of binding to chip-bound human α-CGRP blocked
Excerpt: as §1, §2

Row | Binder | % Binding Blocked [%]
7 | B1 | 100
8 | B2 | 40.6
9 | SGGVVKNNFVPTNVGSAAF-NH2 (also: N-terminal biotin when on the chip, the entry already carries K35A) [human α-CGRP K35A (19-37)] | 100
10 | SGGVVKNNFVPTNVGSEAF-NH2 (also: N-terminal biotin when on the chip, the entry already carries K35E) [human α-CGRP K35E (19-37)] | 100
11 | SGGVVKNNFVPTNVGSMAF-NH2 (also: N-terminal biotin when on the chip, the entry already carries K35M) [human α-CGRP K35M (19-37)] | 100
12 | SGGVVKNNFVATNVGSKAF-NH2 (the entry already carries P29A) [human α-CGRP P29A (19-37)] | 100
